Test results: PMC8763006

Target: glutathione S-transferase Pi 1 (GSTP1) (human (endogenous in 97H and Huh7)), P09211
Assay: native gel or EMSA; total protein of 97H-PCSK9 and 97H-mock cells in nondenaturing, nonreducing buffer without boiling, PAGE gel without SDS; Western blot with anti-GSTP1
Settings: remark: other sources report otherwise

stoichiometry N: 2
B1: glutathione S-transferase Pi 1 (GSTP1), P09211 1-210 (natural protein)
chain: MPPYTVVYFPVRGRCAALRMLLADQGQSWKEEVVTVETWQEGSLKASCLYGQLPKFQDGDLTLYQSNTILRHLGRTLGLYGKDQQEAALVDMVNDGVEDLRCKYISLIYTNYEAGKDDYVKALPGQLKPFETLLSQNQGGKTFIVGDQISFADYNLLDLLLIHEVLAPGCLDAFPLLSAYVGRLSARPKLKAFLASPEYVNLPINGNGKQ
